The supplement of paper PMC10567573

B1: BTBD10 (parent)
chain: FVYENAKEGARNIRTSERVTLIVD
B2: ELF3 (parent)
chain: LSKEYWDCLEGKKSKHAPRGTHLW

Variants of: B1
Assay: protein stability index of a GFP-peptide fusion (GPS, HEK-293T) (PSI 1-6); higher = more stable
Conditions: c terminus: a fixed tail appended
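Note: lentivirally expressed fusions sorted by FACS into six bins by GFP to DsRed ratio, PSI derived from sequencing read proportions per bin multiplied by bin number.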

Protein stability index, by site and new letter:
T20: G 1.59; P 3.04; E 2.06; S 2.27; W 3.5; N 2.56; R 1.81; K 2.07; I 1.84; L 1.48; V 1.38; Q 2.18; M 1.82; F 2.63; C 2.74; H 2.06; Y 1.81; D 1.92; A 1.73
V19: L 2; N 2.43; E 2.86; G 2.21; Y 2.35; T 2.39; Q 2.6; R 2.34; C 2.49; F 2.27; M 1.62; H 2.35; P 2.73; D 2.48; K 1.91; I 1.61; S 2; A 2.45; W 1.53
E17: R 1.46; K 2.18; Y 2.24; Q 1.87; D 1.74; N 2.22; I 2.25; C 3.19; T 1.23; G 3.65; S 1.91; M 2.82; A 2.17; F 3.19; P 1.54; V 3.52; L 3.89; H 1.8
I13: N 2.52; R 2.4; Q 2.38; S 2.44; H 2.4; W 1.68; K 2; V 2.06; Y 2.37; M 1.64; L 2.5; T 2.4; G 2.31; P 2.21
T15: M 1.97; Q 2.68; Y 1.39; R 2.06; V 1.75; H 2.15; D 2.37; L 1.47; E 2.48; S 2.38; G 2.36; K 2.25; C 1.91; F 1.99; I 1.68; P 1.81; A 2.26; N 2.11
R14: L 1.55; P 1.85; H 1.99; T 2.14; W 2.87; A 2.17; C 1.83; N 2.32; Q 2.08; F 2.38; D 2.33; G 1.99; I 2.02; Y 2.85; V 2.05; S 2.33; M 2.04; E 2.18; K 1.68
I22: A 1.76; E 3; C 2.33; T 2.41; G 1.72; R 2.24; P 2.89; M 2.77; D 2.96; L 1.72; N 2.72; H 2.2; Q 2.31; W 3.09; K 2.34; V 2.92; Y 1.81; S 2.67; F 2.06
L21: V 1.64; S 2.32; C 2.32; T 2.07; G 2.56; F 1.88; P 2.03; W 2.56; I 1.57; M 1.99; H 2.11; R 2.14; Y 1.89; K 2.6; A 2.34; Q 2.83; N 2.63; D 3.07; E 2.79
D24: E 1.65; A 1.49; P 2.06; F 2.88; M 1.95; N 1.95; H 1.66; C 1.91; Q 2.03; R 1.93; K 1.72; T 2.5; S 1.18; W 3.12; V 2.35; G 1.82; L 2.03; Y 2.01; I 2.95
V23: E 2.89; F 1.99; I 1.82; L 2.07; Y 1.7; S 2.25; H 2.26; A 2.26; M 2.04; W 1.4; N 2.92; D 2.39; P 3.05; Q 2.47; R 2.68; G 2.11; K 2.06; T 2.16; C 2.15
R18: F 2.16; E 2.29; M 1.97; H 1.98; N 2.07; A 1.77; T 1.98; Q 1.79; I 1.66; C 1.83; G 2.31; L 1.83; S 1.89; V 1.69; D 2.61; Y 1.44; K 2.1; P 2.31; W 2.27
S16: V 1.34; E 2.57; L 1.39; T 1.89; R 2.34; N 2.64; C 2.02; F 1.58; K 2.09; M 2.28; G 2.41; D 2.33; Q 2.18; I 2.38; H 1.78; Y 2.44; P 2.33; A 1.99; W 2.1

Variants of: B2
Assay: as above
Conditions: c terminus: a fixed tail appended

Protein stability index, by site and new letter:
E4: F 2.13; M 2.56; H 1.89; D 2.8; T 2.87; A 2.23; K 2.11; I 2.65; V 2.53; R 1.86; P 2.35; W 1.58; G 1.99; Y 2.16; S 2.38; L 2.06; N 2.84; C 4.2; Q 1.74
D7: A 2.28
W6: A 3.6; L 3.08; F 3; E 3.66; T 3.97; Y 3.22; G 2.84; Q 3.43; V 3.13; K 3.65; C 3.38; D 3.93; I 2.96; S 3.44; P 3.82; H 2.33; N 3.42; R 3.39; M 3.56
L1: C 2.42; R 2.96; Y 2; Q 2.71; P 1.86; A 2.79; S 2.67; G 3.33; W 1.97; H 2.16; D 3.2; V 2.77; E 3.35; N 2.63; M 2.06; T 2.53; I 2.37; K 3.02
Y5: F 3.23; G 2.92; N 3.45; Q 2.45; W 2.66; L 2.19; K 3.19; M 3.38; R 3; S 3.3; P 3.37; D 3.41; C 2.91; A 3.23; T 2.66; V 2.34; H 3.85; I 2.65; E 3.62
K3: Q 2.13; E 2.97; A 2.7; C 2.55; V 2.1; L 2.57; I 2.29; H 2.78; P 2.56; R 2.93; D 2.69; S 2.61; T 2.83; G 2.02; F 2.1; W 2.35; M 2.33; N 2.97; Y 2.6
S2: P 2.99; M 2.48; D 3.11; T 2.98; N 3.13; G 3.12; H 3.04; Q 2.78; C 2.29; R 2.48; E 3.59; Y 1.91; L 1.91; V 2.36; K 2.28; A 2.59; F 2.26; I 2.26
